The supplement of paper PMC9170038

Test system: MS2 coat protein
Assay: apparent KD of MS2 coat protein; designed switch direction (-1 OFF switch, 1 ON switch): -1; higher = weaker reporter binding
How it was run: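 Designed RNA switches with common flanks were made on Illumina chips by stalled E. coli RNA polymerase. Titration with SNAP-549-labelled MS2 coat protein doubled from 0.7 or 1.5 nM up to 3 µM. Apparent KD is each design's median over clusters after curve-fitting normalised fluorescence.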

[1] = input ligand: microRNA oligo, concentration not stated
[2] = Eterna round: R95, input ligand: FMN 200 uM
[3] = Eterna round: R95, input ligand: microRNA oligo, concentration not stated
[4] = Eterna round: R95, input ligand: none

| Sequence | apparent KD of MS2 coat protein (input ligand: FMN 200 uM) | apparent KD of MS2 coat protein (input ligand: none) | further results |
| --- | --- | --- | --- |
| GCCAAUGACUGAGGAUAUGCUUAUAGACAUGAGGAUCACCCAUGUAAAUGGGACAUGUCAAACCAGCAGAAGGCAGGACCUGGC [Arused] (Eterna round: R96, puzzle: Exclusion NG 2) | 0.069 µM | 0.514 µM | apparent KD of MS2 coat protein [1]: 0.585 µM |
| GCGCGAAGGUAGGAUAUCGAGGGAUCUUCCCGCCGAGAAGGACCCACAUGAGGAUCACCCAUGUGGUGAUCCUG [eternacac ex6r4 sub9] (Eterna round: R97, puzzle: Exclusion 6) | 0.0271 µM | 0.0494 µM | – |
| AACACACAUGAGGAUCACCCAUGUGAGGAUAUCGUCGAGGAUGUAAUGCCAUCCGUGACGAGAAGGCACUUGGG [Exclusion 1 (Mod 3 solution 40 by Eternabot)] (Eterna round: R97, puzzle: Exclusion 1) | 0.0588 µM | 0.211 µM | – |
| UAUAUAUAGUAAGGAUAUGUAUUUAUUUUACAAACAGAAGGUACUGACAUGAGGAUCACCCAUGUUUUAGUGUGGGCAUGUAGA [JMF's solution 24] (Eterna round: R96, puzzle: Exclusion NG 1) | – | – | apparent KD of MS2 coat protein [1]: 0.0488 µM |
| AAUGUGUGAGGAUAUUAGUUGUACGUCAAUAGACGUAUAAGUGAGAAGGCACAUGAGGAUCACCCAUGUUCCUG [Omei Ex4 Mod of Mat's R95 mod of Omei v6] (Eterna round: R97, puzzle: Exclusion 4) | 0.109 µM | 0.0249 µM | – |
| CAUGUGUUAGGAUAUGCACAGAUCUCCUAAUGGAGAUCUGUGCAGAAGGGACAUGAGGAUCACCCAUGUUGAUG [Mod of Brourd 14 - Jieux - Exclusion 4] (Eterna round: R97, puzzle: Exclusion 4) | 0.0786 µM | 0.0486 µM | – |
| GGGCCCGGAGGAUAUACAUGAGGAUCACCCAUGUAGGGCCCGGGUAUUCCCGGGUUUUGUAGAAGGCCGGGUUU [-33.8, -30.7 kcal, A 19%, 5a,5a] (Eterna round: R97, puzzle: Exclusion 3) | 0.0251 µM | 0.0148 µM | – |
| UUUUAGAGAGGAUAUAUAUUGUGAAACAUGAGGAUCACCCAUGUAAUAAUAUGGAUGAAAAUAGAAGGCUCAUUUA [Mat - Exclusion 5 - JL mod - D7] (puzzle: Exclusion 5) | – | – | apparent KD of MS2 coat protein [2]: 0.0521 µM; apparent KD of MS2 coat protein [3]: 0.0627 µM; apparent KD of MS2 coat protein [4]: 0.0736 µM |
| UCGUUCCGUGUAGGAUAUUGGCCUUCCUUGGGCCGAGAAGGACAUGAGGAUCACCCAUGUAUGUUAUUAUCGCGCGUGGCGCAU [Design 87] (Eterna round: R96, puzzle: Exclusion NG 1) | 0.0971 µM | 0.0186 µM | apparent KD of MS2 coat protein [1]: 0.0133 µM |
| UACCAGGUUCAGGAUAUGCCCUCGAAGAGAGGCGCAGAAGGGAACACAUGAGGAUCACCCAUGUCAGCCGCUUC [Eternabot (Original) Solution 45] (Eterna round: R97, puzzle: Exclusion 6) | 0.0266 µM | 0.0171 µM | – |
| UUGUCACAUGAGGAUCACCCAUGUGAGGAUAUGGCCCGCCCGGCGUGUGCUGGUUUUGUCAGAAGGCGCGUGGG [salish99_ex1_r4_028] (Eterna round: R97, puzzle: Exclusion 1) | 0.0246 µM | 0.0196 µM | – |
| AGCCUAGCAGGAUAUGCCCGGGAUAACAUGAGGAUCACCCAUGUGACCGAUUGAUGUCUUGCAGAAGGGCUAGGGA [JL-EX5-4.02 ViennaUCT mod] (Eterna round: R97, puzzle: Exclusion 5) | 0.0584 µM | 0.0157 µM | – |
| GACGUGUAAGGAUAUGAUGUUGCAAACAAGACCCUUAAUCAUUAGAAGGUACAUGAGGAUCACCCAUGUAGGGU [Eternabot (L2) Solution 100] (Eterna round: R97, puzzle: Exclusion 4) | 0.129 µM | 0.14 µM | – |
| UCAUGUUUAGAGGAUAUGAUUACUUUAGAGUAAUCAGAAGGCUAGACAUGAGGAUCACCCAUGUCAUAACAUGA [Exclusion 6 - B - 15:a] (puzzle: Exclusion 6) | – | – | apparent KD of MS2 coat protein [2]: 0.0383 µM; apparent KD of MS2 coat protein [3]: 0.062 µM; apparent KD of MS2 coat protein [4]: 0.0543 µM |
| CCUUGGUGAGGAUAUUGAAAAUCUGUCAUAUGCCGACAACUCAAGAAGGUACAUGAGGAUCACCCAUGUUGGGC [Eternabot (Original) Solution 18] (Eterna round: R97, puzzle: Exclusion 4) | 0.107 µM | 0.102 µM | – |
| AGCUGACGAGGAUAUACAUGAGGAUCACCCAUGUUGGUUCAGCGACGAUAGUCGCAAUGUAGAAGGCGUCAGCU [E3/9-A1] (Eterna round: R97, puzzle: Exclusion 3) | 0.0774 µM | 0.496 µM | – |
| GCUGGACGAGGAUAUACAAUCGUGCUUCGGCACGUAAGGUCACAUGAGGAUCACCCAUGUAGAAGGUGUCCAGC [E2/2-B2] (Eterna round: R97, puzzle: Exclusion 2) | 0.0548 µM | 0.0183 µM | – |

| Sequence | apparent KD of MS2 coat protein (input ligand: FMN 200 uM) | apparent KD of MS2 coat protein (input ligand: none) | further results |
| --- | --- | --- | --- |
| CGGAUGUGAGGAUAUACAUGAGGAUCACCCAUGUGAGCCAGCUAGAUGACUGGCUCGUGUAGAAGGCACGUCUG [Mat - Exclusion 3 - Mod of JL D92] (puzzle: Exclusion 3) | – | – | apparent KD of MS2 coat protein [3]: 0.0121 µM |
| AUAAUGUAAGGAUAUCAGUCGACUAGCGAUAGCUAGUCGACUGAGAAGGUACAUGAGGAUCACCCAUGUGAAUA [E4/16-A4] (Eterna round: R97, puzzle: Exclusion 4) | 0.213 µM | 0.046 µM | – |
| CUGAGGUAGCGGUCCUAUGACAUGAGGAUCACCCAUGUACCUUGCUUUGAGCUAUUUGCUCGUCUUAUGAUUCUCGG [Mat - Sensor v3 - turn-off var 1 - JL Mod - D40] (puzzle: Sensor v3, turn-off variant 1) | – | – | apparent KD of MS2 coat protein [2]: 0.457 µM; apparent KD of MS2 coat protein [3]: 0.355 µM; apparent KD of MS2 coat protein [4]: 0.545 µM |
| GAAACGCGAGGAUAUACAGACGAGUCCAUUACGUGUCUCGGACUUGAGGAUCACCCAAGUAGAAGGCGUCUCAG [salish99_ex2_r4_631] (Eterna round: R97, puzzle: Exclusion 2) | 0.0248 µM | 0.0276 µM | – |
| AAUUCACAUGAGGAUCACCCAUGUCAGGAUAUGGUUUCACGUGUUUCUUUGCUUGAGGCCAGAAGGGACAGCUA (puzzle: Exclusion 1) | – | – | apparent KD of MS2 coat protein [3]: 0.0672 µM |
| CUUGCGGAUAAAGGAUAUUGCGGUGACCGGCUCGGCGUACCGAGCCUACAUGAGGAUCACCCAUGUAAGAAGGUUGUCGCUGGU [JL ViennaUCT Qudice mod 3] (Eterna round: R96, puzzle: Exclusion NG 2) | 0.0129 µM | 0.0141 µM | apparent KD of MS2 coat protein [1]: 0.00845 µM |
| UUUGUUGUUGUGAGGAUAUCGUUGAUUUUUUGAAACGAGAAGGCACAUGAGGAUCACCCAUGUUUGUUGUUGGU [JR_BMOE4_Sub058] (puzzle: Brourd's mod of Exclusion 4) | – | – | apparent KD of MS2 coat protein [3]: 0.0588 µM |
| CUAGUAUAUCAGGAUAUGAUUUUAUAUAGUUGGUCAGAAGGGAUGACAUGAGGAUCACCCAUGUUAAGGAGUGA [JR_Ex6_Sub043] (Eterna round: R97, puzzle: Exclusion 6) | 0.143 µM | 0.118 µM | – |
| GAAAACGCAGAGGAUAUUUCAGAUCAAAGCUGCAAAGAAGGCUGCACAUGAGGAUCACCCAUGUGGUCUUUAAA [Quesina] (puzzle: Exclusion 6) | – | – | apparent KD of MS2 coat protein [2]: 0.167 µM; apparent KD of MS2 coat protein [3]: 0.0178 µM; apparent KD of MS2 coat protein [4]: 0.0164 µM |
| UCGAUGCGAGGAUAUACUAAGGCAACUACUGCAGCUCAAAAACAUGAGGAUCACCCAUGUAGAAGGCGCAUAUA [JR_Exc002_Sub304] (Eterna round: R96, puzzle: Exclusion 2) | – | – | apparent KD of MS2 coat protein [1]: 0.0129 µM |
| CAAGAAAAGAAAGGAUAUAGCGCGGAGCCGCAGCUAGAAGGUUCGGUGGGUAUCCUGUAACAUGAGGAUCACCCAUGUAAAGAG [Texelara] (Eterna round: R96, puzzle: Exclusion NG 1) | 0.499 µM | 0.527 µM | apparent KD of MS2 coat protein [1]: 0.109 µM |
| GGUAAGCUAGGAUAUGCUUUGGGAAAGCAUUCCUUCGAUAAACUUGAGGAUCACCCAAGUAGAAGGAGCUUACU [salish99_ex2_r4_014] (Eterna round: R97, puzzle: Exclusion 2) | 0.0192 µM | 0.0144 µM | – |
| AGUACUAACACGAAAGUGUUAGUACAAAUGAGCUUUUGAACAUGAGGAUCACCCAUGUCCUCAUAAGCUCGUCUUAA [Mat - Sensor v2 - var 2 - Mod - D174] (Eterna round: R96, puzzle: Sensor v2, turn-off variant 2) | 0.0274 µM | 0.0322 µM | apparent KD of MS2 coat protein [1]: 0.408 µM |
| AAUAAUAGCGAGGAUAUCGUAUCGGAAACGAUACGAGAAGGCGUAACAUGAGGAUCACCCAUGUGUCCUCAAAA [Mat - Exclusion 6 - Eli Mod - D7] (Eterna round: R97, puzzle: Exclusion 6) | 2.52 µM | 0.146 µM | – |
| UAUUUACAUGAGGAUCACCCAUGUCAGGAUAUGCGUCUAUCGUCGAAAGACGAUAGCCGCAGAAGGGACAAUAU [LRO-Excl01-21 mod derived from EliFisker 4.24] (Eterna round: R97, puzzle: Exclusion 1) | 0.0873 µM | 0.0581 µM | – |
| GUGUAGAUAGGAUAUACGAGAGUCUAGCGAAGCUAGAUUCUACAUGAGGAUCACCCAUGUAGAAGGGUCUACAC [Fiskers Ex 2 - 30] (puzzle: Exclusion 2) | – | – | apparent KD of MS2 coat protein [3]: 0.0142 µM |
| UGCGUACAUGAGGAUCACCCAUGUGAGGAUAUUUGGCAUCGCGAGUGCCCAAGGAGAUAGAGAAGGCAUAUGGA [Eternabot (L1) Solution 50] (Eterna round: R97, puzzle: Exclusion 1) | 0.0343 µM | 0.0372 µM | – |
